B1: Vaccinia virus A27 protein, full length wild type (natural protein)
chain: MDGTLFPGDDDLAIPATEFFSTKAAKKPEAKREAIVKADEDDNEETLKQRLTNLEKKITNVTTKFEQIEKCCKRNDEVLFRLENHAETLRAAMISLAKKIDVQTGRRPYE

Key:
[1] = molecular target: tA27-WT (aa 21–84, C71A/C72A, extra N-terminal tryptophan) (vaccinia virus (Western Reserve strain)) (UniProt P11258); experiment: AUC
[2] = molecular target: tA27-WT (aa 21–84, C71A/C72A, extra N-terminal tryptophan) (vaccinia virus (Western Reserve strain)) (UniProt P11258); experiment: SEC-MALS
[3] = molecular target: the molecule itself; experiment: non-reducing SDS-PAGE with immunoblot (disulfide-linked complexes)

Molecule	stoichiometry N [1]	stoichiometry N [2]	stoichiometry N [3]
tA27-WT (aa 21–84, C71A/C72A, extra N-terminal tryptophan) (from UniProt P11258 21-84) (domain or fragment)	2	2	
B1			2

Reference: publication PMC3749956 (PLoS Pathogens, 2013)
